Experimental findings from patent US20130196320A1, “METHOD FOR IMPROVING CLEAVAGE OF DNA BY ENDONUCLEASE SENSITIVE TO METHYLATION” (CELLECTIS, priority 2010, published 2013) are described below.

Some results are limits rather than exact numbers.

One data set concerns ADCY9.1 DNA target. The experiment in a line: In vitro single turn over cleavage assay with ADCY9.1. The class given is biochemical. The procedure: FIG. 13: In vitro cleavage of unmethylated or methylated ADCY9.1 by ADCY9. A constant amount of ADCY9.1 duplex (50 nM) was incubated with an excess of ADCY9 (1.5 μM, final concentration) in the reaction buffer (10 mM Tris-HCl, 150 mM NaCl, pH8) at 37° C. Cleavage reaction was triggered by the addition of MgCl2 and then stopped after different time lengths by the addition of the stop buffer. This was followed by one hour of incubation at 37° C. to digest ADCY9 and release free DNA molecules. Cleaved and uncleaved DNA products were separated by PAGE using a TGX Any kD precast gel (Bio-Rad), stained with SYBR Green and then quantified using Quantity One software (Bio-Rad). Disappearance of substrate (uncleaved DNA) is plotted as a function of time.
To investigate the influence of C1234 methylation on the nuclease activity of I-Cre I, in vitro single turn over cleavage assays were performed with either unmethylated or methylated C1234 duplexes (unmethylated C1234 composed of SEQ ID NO: 31+SEQ ID NO: 32, C1234_Me full composed of SEQ ID NO: 35+SEQ ID NO: 38, C1234_Me-6a/-5b composed of SEQ ID NO: 33+SEQ ID NO: 36, C1234_Me-3a/-2b composed of SEQ ID NO: 34+SEQ ID NO: 37, C1234_Me-3a composed of SEQ ID NO: 34+SEQ ID NO: 32, C1234_Me-2b composed of SEQ ID NO: 31+SEQ ID NO: 37, respectively). A constant amount of C1234 duplex (50 nM) was incubated with an excess of I-Cre I (1.5 μM, final concentration) in the reaction buffer (10 mM Tris-HCl, 150 mM NaCl, pH8) at 37° C. Cleavage reaction was triggered by the addition of MgCl2 and then stopped after different time lengths by the addition of the stop buffer (45% glycerol, 95 mM EDTA, 1.5% (w/v) SDS, 1.5 mg/mL proteinase K and 0.048% (w/v) bromophenol blue, final concentrations). This was followed by one hour incubation at 37° C. to digest I-Cre I and release free DNA molecules. Cleaved and uncleaved DNA products were separated by PAGE using a TGX Any kD precast gel (Bio-Rad), stained with SYBR Green and then quantified using Quantity One software (Bio-Rad). […]

A further data set has as its target XPC4.1 DNA target. Nature of the data set: In vitro binding assay, fluorescence anisotropy of fluorescein-labeled XPC4.1 duplex. How it is done: FIG. 7: Spectrofluorimetric titration of fluorescein-labeled XPC4.1 by XPC4. 50 nM of XPC4.1 duplex was incubated with increasing concentrations of XPC4 (from […]) in binding buffer (10 mM Tris-HCl, 150 mM NaCl, 10 mM CaCl2, 10 mM DTT, pH8) at 25° C. After 30 minutes incubation, the fluorescence anisotropy of the mixture was recorded with a Pherastar Plus (BMG Labtech) operating in fluorescence polarization end point mode with excitation and emission wavelengths set to 495 and 520 nm respectively. Normalized fluorescence anisotropy is plotted as a function of XPC4 concentration. Apparent dissociation constant were determined by fitting raw data by an hyperbolic function (Ax=(A∞*[Meganuclease])/(Kd+[Meganuclease]) with Ax, the fluorescence anisotropy value obtained at a given meganuclease concentration, A∞ the fluorescence anisotropy value obtained at saturating concentration of meganuclease and Kd the dissociation constant of the equilibrium studied).
Fluorescein labeled C1234 oligonucleotides were synthesized and HPLC-purified by Eurogentec. […] C 1234 duplex and fluorescein final concentrations were assessed by spectrophotometry using their respective extinction coefficients ε260nm=62900 M^−1 cm^−1 and ε495nm=83000 M^−1 cm^−1. […]
Background: Polarisation of emitted light reports the rotation of a fluorescent probe.

B1: ADCY9: engineered meganuclease (SEQ ID NO: 3) designed to cleave adenylate cyclase 9 gene (protein)
chain: MANTKYNEEFLLYLAGFVDGDGSIIAQIKPNQSYKFKHQLSLTFRVTQKTQRRWFLDKLVDEIGVGYVRDSGSVSNYDLSEIKPLHNFLTQLQPFLELKQKQANLVLKIIEQLPSAKESPDKFLEVCTWVDQVAALNDSKTRKTTSETVRAVLDSLSEKKKSSPAAGGSDKYNQALSKYNQALSKYNQALSGGGGSNKKFLLYLAGFVDSDGSIIAQIKPDQSYKFKHQLGLTFQVTQKTQRRWFLDKLVDRIGVGYVRDRGSVSDYILSEIKPLHNFLTQLQPFLKLKQKQANLVLKIIEQLPSAKESPDKFLEVCTWVDQVAALNDSKTRKTTSETVRAVLDSLSEKKKSSP
What is called kcat is the maximal rate divided by the concentration of active sites. Consider B1, for which the figures for the kcat in the data set on ADCY9.1 DNA target (ADCY9.1_Me −3a/−2b (fully methylated)) and in the data set on ADCY9.1 DNA target (unmethylated ADCY9.1) were under 1.7e-06 s⁻¹ and 0.00095 ± 1.7e-05 s⁻¹, respectively. Besides, the “substrate disappearance” value with ADCY9.1 DNA target (fully methylated ADCY9.1, even after 5 hours) is listed as “no substrate disappearance was observed”.

B2: XPC4: engineered meganuclease (SEQ ID NO: 2) designed to cleave xeroderma pigmentosum group C gene (XPC) (protein)
chain: MANTKYNEEFLLYLAGFVDGDGSIIAQIKPNQSHKFKHALQLTFKVTQKTQRRWFLDKLVDEIGVGYVQDSGSVSNYILSEIKPLHNFLTQLQPFLELKQKQANLALKIIEQLPSAKESPDKFLEVCTWVDQVAALNDSKTRKTTSETVRAVLDSLSEKKKSSPAAGGSDKYNQALSKYNQALSKYNQALSGGGGSNKKFLLYLAGFVDSDGSIIAQIKPNQSHKFKHQLSLAFQVTQKTQRRWFLDKLVDRIGVGYVRDRGSVSDYILSKIKPLHNFLTQLQPFLKLKQKQANLVLKIIEQLPSAKESPDKFLEVCTWVDQVAALNDSKTRKTTSETVRAVLDSLSEKKKSSP
Usually Kd stands for the equilibrium constant for the complex coming apart. A high value points to a looser complex. For B2, the values for the Kd at XPC4.1 DNA target (XPC4.1_Me −11a/−10b & +10a/+11b (fully methylated)) and on XPC4.1 DNA target (unmethylated XPC4.1) were 127 ± 22 nM and 108 ± 21 nM, respectively.
